Changes are numbered by the printed parent chain.

For test [1], the target named is T1, OTV3-BSA (human; bovine, conjugated to the carrier via N-terminal Cys). As to the kind of experiment: monoclonal phage ELISA, replicate 1. As to the method:
(§1) Single *E. coli* clones were picked randomly selected during the biopanning step and cultured. Supernatants containing phage were prepared and purified. ELISA plates were coated with antigens conjugated to carriers or carriers alone (control), followed by washing, blocking, washing and addition of purified phage. After additional washing, bound phage was detected using anti-phage-HRP antibody.
(§2) This example describes the production of a monoclonal antibody by phage display. The phage library used in this case was a commercially available human naïve LiAb-Fab library (high diversity of 2×10E^10 variants). After 4 rounds of biopanning and ELISA tests, 80 clones were selected and 5 different sequences were identified within this group of phage clones, represented by R4P1-C1, #1, #2, #3, and #4. Each of these phage clones were tested by ELISA for binding to each of the individual peptides OTV3, OTV4, and OTV5 each coupled to either BSA, OVA or KLH (a total of 9 peptide-conjugates). This is an important confirmation step to ensure clone specificity because due to their nature phages can sometimes bind unspecifically. In the ELISA tests (monoclonal phage ELISA tests) one phage Fab clone, R4P1-C1, bound specifically and strongly to all three of the peptides (all nine of the peptide-carrier conjugates), whereas the other phage Fab clones appeared to be non-specific binders (see Table GG below, all phages were tested at the same concentration).
(In general: An ELISA detects its analyte on a solid surface through an enzyme-linked reagent.)

Test [2] deals with T2, OTV3-KLH (human; keyhole limpet, conjugated to the carrier via N-terminal Cys ; chain 1 pos 1: Cys chemically coupled to the KLH carrier (written C); linear peptide).
T2 peptide: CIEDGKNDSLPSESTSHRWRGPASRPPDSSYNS
In words: monoclonal phage ELISA, replicate 1. As to the method:
as §1, §2

Test [3] deals with T3, OTV5-OVA (human, UniProt P01012 2-386 (chicken entry), (Pra-) at the N-terminus; C-terminal amide (-CONH2); cyclic; conjugated to the carrier via N-terminal Cys as stated in Example 4).
T3 sequence (peptide): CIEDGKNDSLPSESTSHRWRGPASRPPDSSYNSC
T3 sequence: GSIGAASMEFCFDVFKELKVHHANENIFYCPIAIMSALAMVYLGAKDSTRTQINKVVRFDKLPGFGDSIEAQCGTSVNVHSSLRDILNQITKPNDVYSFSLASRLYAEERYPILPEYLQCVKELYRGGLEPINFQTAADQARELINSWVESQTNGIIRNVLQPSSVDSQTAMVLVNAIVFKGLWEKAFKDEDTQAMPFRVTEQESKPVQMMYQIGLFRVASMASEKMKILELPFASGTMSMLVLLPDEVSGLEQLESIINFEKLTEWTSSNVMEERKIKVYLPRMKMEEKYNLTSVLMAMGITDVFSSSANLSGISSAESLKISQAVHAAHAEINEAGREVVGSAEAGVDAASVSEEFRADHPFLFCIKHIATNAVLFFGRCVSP
In words: monoclonal phage ELISA, replicate 1. The protocol:
as §1, §2

Test [4] has as its target T4, OTV4-OVA (human, UniProt P01012 2-386 (chicken entry), conjugated to the carrier via N-terminal Cys).
T4 sequence (peptide): T2 peptide with S24C
T4 sequence: T3 sequence
As to the kind of experiment: monoclonal phage ELISA, replicate 1. The protocol:
as §1, §2

For test [5], the target named is T5, OTV3-OVA (human, UniProt P01012 2-386 (chicken entry), conjugated to the carrier via N-terminal Cys).
T5 sequence (peptide): T2 peptide
T5 sequence: T3 sequence
As to the kind of experiment: monoclonal phage ELISA, replicate 1. As to the method:
as §1, §2

For test [6], the target named is T6, OTV5-KLH (human; keyhole limpet, (Pra-) at the N-terminus; C-terminal amide (-CONH2); cyclic; conjugated to the carrier via N-terminal Cys as stated in Example 4 ; chain 1: propargyl group (Pra-) on the N-terminus before Cys1, not …).
T6 peptide: T3 sequence (peptide)
In words: monoclonal phage ELISA, replicate 1. As to the method:
as §1, §2

The target of test [7] is T7, OTV5-BSA (human; bovine, (Pra-) at the N-terminus; C-terminal amide (-CONH2); cyclic; conjugated to the carrier via N-terminal Cys as stated in Example 4). As to the kind of experiment: monoclonal phage ELISA, replicate 1. As to the method: as §1, §2
Test [8] deals with T8, OTV4-KLH (human; keyhole limpet, conjugated to the carrier via N-terminal Cys ; chain 1 pos 1: Cys chemically coupled to the KLH carrier (written C); linear peptide).
T8 peptide: T2 peptide with S24C
As to the kind of experiment: monoclonal phage ELISA, replicate 1. The protocol: as §1, §2

In test [9] the target is T9, OTV4-BSA (human; bovine, conjugated to the carrier via N-terminal Cys). As to the kind of experiment: monoclonal phage ELISA, replicate 1. As to the method: as §1, §2
Test [10] addresses T1, OTV3-BSA. As to the kind of experiment: monoclonal phage ELISA, replicate 2. The protocol: as §1, §2
Test [11] concerns the target T2, OTV3-KLH. In words: monoclonal phage ELISA, replicate 2. The protocol:
as §1, §2

Test [12] has as its target T3, OTV5-OVA. In words: monoclonal phage ELISA, replicate 2. The protocol: as §1, §2
Test [13] deals with T4, OTV4-OVA. As to the kind of experiment: monoclonal phage ELISA, replicate 2. The protocol: as §1, §2
Test [14] deals with T5, OTV3-OVA. In words: monoclonal phage ELISA, replicate 2. The protocol:
as §1, §2

Test [15] deals with T6, OTV5-KLH. In words: monoclonal phage ELISA, replicate 2. As to the method: as §1, §2
Test [16] concerns the target T7, OTV5-BSA. As to the kind of experiment: monoclonal phage ELISA, replicate 2. As to the method: as §1, §2
Test [17] concerns the target T8, OTV4-KLH. In words: monoclonal phage ELISA, replicate 2. The protocol: as §1, §2
In test [18] the target is T9, OTV4-BSA. As to the kind of experiment: monoclonal phage ELISA, replicate 2. As to the method: as §1, §2

T9 sequence (P02769 25-607 limits assumed): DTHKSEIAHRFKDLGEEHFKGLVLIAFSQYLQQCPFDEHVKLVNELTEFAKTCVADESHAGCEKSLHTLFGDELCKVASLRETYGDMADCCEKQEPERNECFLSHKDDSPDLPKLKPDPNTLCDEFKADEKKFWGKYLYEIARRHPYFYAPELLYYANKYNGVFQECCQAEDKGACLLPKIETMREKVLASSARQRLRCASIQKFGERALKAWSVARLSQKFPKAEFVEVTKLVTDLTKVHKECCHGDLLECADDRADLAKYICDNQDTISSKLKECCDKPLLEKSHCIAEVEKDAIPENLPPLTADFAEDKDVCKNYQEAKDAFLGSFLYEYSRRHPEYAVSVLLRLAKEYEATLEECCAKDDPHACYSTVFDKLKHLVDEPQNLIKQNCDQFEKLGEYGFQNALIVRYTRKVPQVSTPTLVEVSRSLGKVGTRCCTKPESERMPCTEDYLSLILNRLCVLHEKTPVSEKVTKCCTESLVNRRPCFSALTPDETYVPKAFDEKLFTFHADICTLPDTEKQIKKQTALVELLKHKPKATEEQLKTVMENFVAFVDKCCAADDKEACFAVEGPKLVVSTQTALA
T1 sequence (P02769 25-607 limits assumed): as above
T7 sequence (P02769 25-607 limits assumed): as above

B1: R4P1-C1 (phage Fab clone) (Fab, V domains shown)
VH: QVQLQQSGPGLVKPSQTLSLTCAISGDSVSSNSAAWNWIRQSPSRGLEWLGRTYYRSKWYNDYAVSVKSRITINPDTSKNQFSLQLNSVTPEDTAVYYCARDDYDPVGMYAFDIWGQGTLVTVSS
VL: LPVLTQPPSASGTPGQRVTISCSGSSSNIGSNTVNWYQQLPGTAPKLLIYRNTQRPSGVPDRFSGSKSGTSASLAISGLQSEDEADYYCEAWDDSMRGAAFGGGTQLTVL
notes: also called phage clone R4P1-C1
For the molecule B1, the ELISA signal was determined as 2.87 in test [1]; 3.13 in test [2]; 2.61 in test [3]; 2.84 in test [4]; 2.85 in test [5]; 2.74 in test [6]. For the same molecule, the ELISA signal was found to be 2.63 in test [7]; 2.81 in [8]; 2.95 in [9]; 2.65 in [10]; 2.94 in [11]; 2.49 in test [12]. Besides, the ELISA signal was found to be 2.78 in [13]; 2.72 in [14]; 2.58 in test [15]; 2.56 in test [16]; 2.51 in test [17]; 2.8 in [18].

Source of the values: patent US12590147 (OBLIQUE THERAPEUTICS, dated 2026).
